Laboratory results published in publication PMC11531469, “Molecular mechanism of parental H3/H4 recycling at a replication fork” (Nature Communications, 2024).

Assays:
Details in all cases: both partners purified
[1] = target: T1, histone H3/H4 tetramer (UniProt P61830 1-136; P02309 1-103); test: native gel or EMSA; 0.5 uM Cdc45-7HIS mixed with 0-2 uM H3/H4 tetramer, 15 min at 30 °C; 25 mM HEPES-KOH pH 7.5, 1 mM EDTA, 10% glycerol, 0.05% Tween 20, 300 mM KCl; loss of the free Cdc45 band on 5-20% Tris-Glycine gel, Coomassie; apparent
[2] = target: T1, histone H3/H4 tetramer; test: native gel or EMSA; 0.5 uM Cdc45-7HIS mixed with 0-2 uM H3/H4 tetramer, 15 min at 30 °C; 25 mM HEPES-KOH pH 7.5, 1 mM EDTA, 10% glycerol, 0.05% Tween 20, 150 mM KCl; loss of the free Cdc45 band on 5-20% Tris-Glycine gel, Coomassie; apparent
[3] = target: T1, histone H3/H4 tetramer; test: native gel or EMSA; 0.5 uM Cdc45-7HIS mixed with 0-2 uM H3/H4 tetramer, 15 min at 30 °C; 25 mM HEPES-KOH pH 7.5, 1 mM EDTA, 10% glycerol, 0.05% Tween 20, 750 mM KCl; loss of the free Cdc45 band on 5-20% Tris-Glycine gel, Coomassie; apparent

B1: Cdc45-7HIS (budding yeast Cdc45, wild type) (natural protein)
chain: ISQFSEAYNKILRNSSSHSSCQLVIFVSCLNIDALCATKMLSLLFKKQLVQSQIVPIFGYSELRRHYSQLDDNINSLLLVGFGGVIDLEAFLEIDPQEYVIDTDEKSGEQSFRRDIYVLDAHRPWNLDNIFGSQIIQCFDDGTVDDTLGEQKEAYYKLLELDEESGDDELSGDENDNNGGDDEATDADEVTDEDEEDEDETISNKRGNSSIGPNDLSKRKQRKKQIHEYEGVLEEYYSQGTTVVNSISAQIYSLLSAIGETNLSNLWLNILGTTSLDIAYAQVYNRLYPLLQDEVKRLTPSSRNSVKTPDTLTLNIQPDYYLFLLRHSSLYDSFYYSNYVNAKLSLWNENGKKRLHKMFARMGIPLSTAQETWLYMDHSIKRELGIIFDKNLDRYGLQDIIRDGFVRTLGYRGSISASEFVEALTALLEVGNSTDKDSVKINNDNNDDTDGEEEEDNSAQKLTNLRKRWVSNFWLSWDALDDRKVELLNRGIQLAQDLQRAIFNTGVAILEKKLIKHLRIYRLCVLQDGPDLDLYRNPLTLLRLGNWLIECCAESEDKQLLPMVLASIDENTDTYLVAGLTPRYPRGLDTIHTKKPILNNFSMAFQQITAETDAKVRIDNFESSIIEIRREDLSPFLEKLTLSGLL
notes: Cdc45, budding yeast; also called WT; source: Escherichia coli, purified
B1 showed a Kd [1] of 90 nM, a Kd [2] of 68 nM and a Kd [3] of 216 nM.
